Experimental data: paper PMC11295148

How the values were obtained:
Experiment in all cases: purified protein
purified protein [1] = substrate: CN(C)c1ccc(N=Nc2ccccc2C(=O)O)cc1; format: biochemical, Anaerotignum lactatifermentans; details: 400 μM NADH, 50 mM MOPS pH 7.2, 22 °C
purified protein [2] = substrate: CCN(CC)c1ccc(N=Nc2ccccc2C(=O)O)cc1; format: biochemical, Anaerotignum lactatifermentans; details: 400 μM NADH, 50 mM MOPS pH 7.2, 22 °C
purified protein [3] = substrate: Nc1ccc(N=Nc2ccccc2)c(N)n1; format: biochemical, Anaerotignum lactatifermentans; details: 400 μM NADH, 50 mM MOPS pH 7.2, 22 °C
purified protein [4] = substrate: O=C(O)c1cc(/N=N/c2ccc(S(=O)(=O)Nc3ccccn3)cc2)ccc1O; details: 40 μM NADH, 50 mM MOPS pH 7.2, 22 °C

B1: AlAzoR (Anaerotignum lactatifermentans DSM 14214) (protein)
chain: MKKVLFVNCCIRREGSRTQKLADHFLEGLRKKEGYEIEELCLMDESLSYFTDGFFEQRERLLADKQFDHPRFRYAHQFAEADKIVIAAPFWDLSFPALLKVYIENLCVEGITFGCNETGCFGTCKADQLIYLTTRGGFYNDNPMEMGSRYIWAMCDFFGIPRYDCVAGDGLDTGVRPVEEILEDAKAEIDRLLAEF
Purified protein [1]
  Km: 17 ± 3 µM
  kcat: 0.49 ± 0.03 s⁻¹
  kcat/Km: 28000 ± 4000 M⁻¹ s⁻¹
Purified protein [2]
  Km: 30. ± 2 μM
  kcat: 0.78 ± 0.02 s⁻¹
  kcat/Km: 26000 ± 2000 M⁻¹ s⁻¹
Purified protein [3]
  Km: 23 ± 3 µM
  kcat: 0.138 ± 0.008 s⁻¹
  kcat/Km: 6000 ± 700 M⁻¹ s⁻¹
Purified protein [4]
  Km: 8 ± 1 µM
  kcat: 0.05 s⁻¹
  kcat/Km: 6100 M⁻¹ s⁻¹
